Measurements reported in US20240226168A1.

Target: poliovirus receptor (PVR) (UniProt P15151)
Experiment: cell-based or functional assay

Chain of poliovirus receptor (PVR) (P15151 21-417 limits assumed): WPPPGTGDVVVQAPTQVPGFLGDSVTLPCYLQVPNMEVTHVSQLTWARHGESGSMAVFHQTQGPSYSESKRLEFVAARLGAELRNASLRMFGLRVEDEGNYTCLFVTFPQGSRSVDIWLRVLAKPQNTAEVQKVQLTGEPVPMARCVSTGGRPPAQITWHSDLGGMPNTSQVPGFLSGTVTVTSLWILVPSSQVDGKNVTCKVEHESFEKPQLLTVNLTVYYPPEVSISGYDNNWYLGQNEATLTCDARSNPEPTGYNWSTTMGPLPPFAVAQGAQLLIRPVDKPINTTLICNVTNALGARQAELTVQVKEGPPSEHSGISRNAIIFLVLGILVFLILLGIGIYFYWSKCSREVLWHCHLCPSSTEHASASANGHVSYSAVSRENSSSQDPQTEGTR

With “T cell immunoreceptor with Ig and ITIM domains (TIGIT) (from UniProt Q495A1 22-244)” the frequency of TNFα+ NK cells after A549 spheroid co-culture (isotype control) and restimulation with PVR+ K562 cells was 15% and the loss in the IFNγ generation capacity of A549 spheroid-exposed PM21-NK cells was 30%.
